Results taken from US20210255174.

Test system: SNAPtide (FITC/DABCYL), List Biological Laboratories product #521

BoNT/A complex (intact BoNT/A toxin complex, Metabiologics)
Km of SNAPtide hydrolysis, bead-immobilized BoNT/A (bead based ALISSA): bead based ALISSA: typical Km=0.2 µM | Km of SNAPtide hydrolysis, free BoNT/A (non-bead based assay): non-bead based assay: typical Km=0.7 µM
